Results as given in the supplement of paper PMC7125110.
± gives the standard error. For some assays here: Fewer inactive variants are shown than the library holds.

B1: glmS ribozyme (parent)
chain: AUAAAAGCGCCAGAACUACAGAAAUGUAGUUGACGAGGAGGAGGUUUAUCGAAUUUUCGGCGGAUGCCUCCAAA

Tests used:
Settings in all cases: with glucosamine-6-phosphate
glucosamine-6-phosphate [1] = variants of: B1; assay: kcat; higher = faster cleavage; RNA array
Method in brief: (§1)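 Tiles bearing barcoded ribozyme variants, transcribed in situ by E. coli RNA polymerase on sequenced MiSeq chips, were imaged over ~14 h at 37 °C using a hybridised Cy3 probe. Glucosamine-6-phosphate was supplied at 40 μM to 10 mM in HEPES/KCl/Mg(OAc)2 buffer. kobs came from one- or two-exponential decay fits to normalised per-tile medians, and weighted Michaelis–Menten fits then provided kcat and KM.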

glucosamine-6-phosphate [2] = variants of: B1; assay: KM; higher = weaker cofactor use; RNA array
Method in brief: as §1

glucosamine-6-phosphate [3] = variants of: B1; assay: self-cleavage kobs at 640 uM GlcN6P; higher = faster cleavage; RNA array
Method in brief: as §1

glucosamine-6-phosphate [4] = variants of: B1; assay: self-cleavage kobs at 2500 uM GlcN6P; higher = faster cleavage; RNA array
Method in brief: as §1

glucosamine-6-phosphate [5] = variants of: B1; assay: self-cleavage kobs at 10000 uM GlcN6P; higher = faster cleavage; RNA array
Method in brief: as §1

glucosamine-6-phosphate [6] = variants of: B1; assay: self-cleavage kobs at 40 uM GlcN6P; higher = faster cleavage; RNA array
Method in brief: as §1

glucosamine-6-phosphate [7] = variants of: B1; assay: self-cleavage kobs at 160 uM GlcN6P; higher = faster cleavage; RNA array
Method in brief: as §1

Row | Variant | kcat (glucosamine-6-phosphate [1]) | KM (glucosamine-6-phosphate [2]) | self-cleavage kobs at 640 uM GlcN6P (glucosamine-6-phosphate [3]) | self-cleavage kobs at 2500 uM GlcN6P (glucosamine-6-phosphate [4]) | self-cleavage kobs at 10000 uM GlcN6P (glucosamine-6-phosphate [5]) | self-cleavage kobs at 40 uM GlcN6P (glucosamine-6-phosphate [6]) | self-cleavage kobs at 160 uM GlcN6P (glucosamine-6-phosphate [7])
1 | AUAAAAGCGCCACAACUACAGAAAUGUAGUUGACGAGGAGGAGGUUUAUCGAAUUUUCGGCGGAUGCCUCCAAA [G13C] | 0.000191 ± 5.2e-06 s⁻¹ | 4.22 ± 0.25 mM | 2.7e-05 ± 1.3e-06 s⁻¹ | 6.98e-05 ± 1.4e-06 s⁻¹ | 0.000135 ± 1.8e-06 s⁻¹ |  | 
2 | AUAAAAGCGCCAUAACUACAGAAAUGUAGUUGACGAGGAGGAGGUUUAUCGAAUUUUCGGCGGAUGCCUCCAAA [G13U] | 0.00254 ± 0.00046 s⁻¹ | 3.67 ± 0.84 mM | 0.000355 ± 7.3e-06 s⁻¹ | 0.00118 ± 5e-05 s⁻¹ | 0.00186 ± 5.8e-05 s⁻¹ | 3.52e-05 ± 1.3e-06 s⁻¹ | 0.000104 ± 3.4e-06 s⁻¹
3 | AUAAAAGCGCCAUAACUACAGAAAUGUAGUUGACGAGGAGGGGGUUUAUCGAAUUUUCGGCGGAUGCCUCCAAA [G13U A42G] | 0.00137 ± 0.00022 s⁻¹ | 1.68 ± 0.46 mM |  | 0.00082 ± 0.00017 s⁻¹ | 0.00117 ± 0.00027 s⁻¹ | 2.35e-05 ± 1.1e-05 s⁻¹ | 0.000152 ± 3.8e-05 s⁻¹
4 | AUAAAAGCGCCACAACUACAGAAAUGUAGUUGACGAGGAGGAGGUUUAUCGAAGUUUCGGCGGAUGCCUCCAAA [G13C U54G] | 0.000222 ± 4.5e-06 s⁻¹ | 6.04 ± 0.23 mM |  | 6.51e-05 ± 1e-05 s⁻¹ | 0.000138 ± 1.7e-05 s⁻¹ |  | 
5 | AUAAAAGCGCCAUAACUACAGAAAUGUAGUUGUCGAGGAGGAGGUUUAUCGAAUUUUCGGCGGAUGCCUCCAAA [G13U A33U] | 1.31e-05 ± 3.3e-07 s⁻¹ | 1.49 ± 0.19 mM |  |  |  | < 1e-05 s⁻¹ | < 1e-05 s⁻¹
6 | AUAAAAGCGCCACAACUACAGAAAUGUAGUUGACGAGGAGGAGGUUUAUCGAAUUUUCGGCGGAUGACUCCAAA [G13C C67A] | 5.87e-05 ± 1.1e-05 s⁻¹ | 5.93 ± 2.6 mM |  |  | 3.7e-05 ± 9e-06 s⁻¹ |  | 
7 | AUAAAAGCGCCAAAACUACAGAAAUGUAGUUGACGAGGAGGAGGCUUAUCGAAUUUUCGGCGGAUGCCUCCAAA [G13A U45C] | 3.07e-05 ± 4.9e-06 s⁻¹ |  |  |  | 2.82e-05 ± 1.3e-05 s⁻¹ |  | < 1e-05 s⁻¹
8 | AUAAAAGCGCCACAACUACAGAAAUGUAGUGGACGAGGAGGAGGUUUAUCGAAUUUUCGGCGGAUGCCUUCAAA [G13C U31G C70U] | 0.000159 ± 3.6e-05 s⁻¹ |  | 4.2e-05 ± 1.9e-05 s⁻¹ | 0.000148 ± 3.9e-05 s⁻¹ | 0.000131 ± 2.7e-05 s⁻¹ |  | 
9 | AUAAAAGCGCCAAAACUACAGAAAUGUAGGUGACGAGGAGGAGGUUUAUCGAAUUUUCGGCGGAUGCCUCCAAA [G13A U30G] | 0.000441 ± 4.8e-05 s⁻¹ | 6.05 ± 1.1 mM | 3.9e-05 ± 1e-05 s⁻¹ | 0.000144 ± 3.3e-05 s⁻¹ | 0.000271 ± 3.9e-05 s⁻¹ |  | 
10 | AUAAAAGCGCCACAACUACAGAAAUGUAGUUGACGAGGAGGAGGUUUAUCGAAUUUUCGGCGGAUACCUCCAAA [G13C G66A] | 6.45e-05 ± 6.3e-06 s⁻¹ | 1.63 ± 0.6 mM |  | 4.1e-05 ± 1.2e-05 s⁻¹ | 5.46e-05 ± 1.2e-05 s⁻¹ |  | 
11 | AUAAAAGCGCCAUAACUACAGAAAUGUAGUUGACGCGUCGGAGGUUUAUCGAAUUUUCGGCGGAUGCCUCCAAA [G13U A36C G38U A39C] | 1.03e-05 ± 4.7e-06 s⁻¹ |  |  |  |  |  | 
12 | AUAAAAGCGCCACAACUACAGAAAUGUAGUUGGCGAGGAGGAGGUUUAUCGAAUUUUCGGCGGAUGCCUCCAAA [G13C A33G] | < 1e-05 s⁻¹ |  | < 1e-05 s⁻¹ |  | < 1e-05 s⁻¹ |  | 
13 | AUAAAAGCGCCACAACUACAGAAAUGUAGUUGAUUAGGAGGAGGUUUAUCGAAUUUUCGGCGGAUGCCUCCAAA [G13C C34U G35U] | < 1e-05 s⁻¹ |  |  | < 1e-05 s⁻¹ | < 1e-05 s⁻¹ | < 1e-05 s⁻¹ | < 1e-05 s⁻¹
14 | AUAAAAGCGCCACAACUACAGAAAUGUAAUUGACGAGGAGGAGGUUUAUCGAAUUUUCGGCGGAUGCCUCCAAA [G13C G29A] | 0.000136 ± 1.6e-05 s⁻¹ | 3.07 ± 0.91 mM | 3.33e-05 ± 1.2e-05 s⁻¹ | 5.64e-05 ± 9.9e-06 s⁻¹ | 0.000106 ± 1.2e-05 s⁻¹ |  | 
15 | AUAAAAGCGCCACAAGUACAGAAAUGUAGUUGACGAGGAGGAGGUUUAUCGAAUAUUCGCCGGAUGCCUGCAAA [G13C C16G U55A G60C C70G] | 1.82e-05 ± 7.2e-06 s⁻¹ |  |  |  |  |  | 
16 | AUAAAAGCGCCACAACUACAGAAAUGUAGUUCACGAGGAGGAGGUUUAUCGAAUUUUCGGCGGAUGCCUCCAAA [G13C G32C] | 0.000728 ± 0.00016 s⁻¹ | 3.05 ± 1.2 mM | 0.000109 ± 2.2e-05 s⁻¹ | 0.000408 ± 7e-05 s⁻¹ | 0.000534 ± 7.8e-05 s⁻¹ |  | 4.58e-05 ± 1.6e-05 s⁻¹
17 | AUAAAAGCGCCAAAACUACAGAAAUGUAGUUGACGAGGAGGAGGUUUAUCGAAUUUUCGGCGGAUGCCGCCAAA [G13A U69G] | 6.29e-05 ± 1.9e-05 s⁻¹ |  | 7.5e-05 ± 1.3e-05 s⁻¹ | 6.99e-05 ± 1.7e-05 s⁻¹ |  |  | 4.26e-05 ± 1.5e-05 s⁻¹
18 | AUAAAAGCGCCACAACUACAGAAAUGUAGUUGACGAGGAGGAGGUUUAUCGAAUUUUCGGCGGAUGCCCCCAAA [G13C U69C] | 7.75e-05 ± 1.1e-05 s⁻¹ |  | 7.04e-05 ± 2.6e-05 s⁻¹ | 5.9e-05 ± 1.8e-05 s⁻¹ | 8.36e-05 ± 1.7e-05 s⁻¹ |  | 
